Test results as given in PMC12265263, “H2A.X N-terminal acetylation is a newly identified NAA40-mediated modification that is responsive to UV irradiation” (Epigenetics & Chromatin, 2025).

Experiments:
[1] = test system: human NAA40 E139Q; experiment: Fluorescence-based in vitro Nt-acetylation assay, N-terminal 17-mer peptides, catalytically inactive NAA40 E139Q; format: biochemical; settings: 17-mer peptide 15 μM, 10 μM acetyl-CoA, 0.1 μM hNAA40 E139Q, 25 mM HEPES pH 7.5, 5 min, triplicate, repeated two times, Fig. 1E
Protocol: (§1) hNAA40 (NCBI: NM_024771.4) WT and E139Q were cloned in pGEX-5 × 1 vector. The plasmids were transformed in BL21 (DE3) codon plus RIL pACYC E. coli cells, generously provided by Till Bartke (Institute of Functional Epigenetics, Helmholtz Munich). The transformed bacteria were grown in 40 mL Lysogeny Broth (LB) medium complemented with 100 μg/mL Ampicillin (Sigma A9518) and 25 μg/mL Chloramphenicol (Sigma C0378-5G) for 16 h at 37 °C. Final culture volume was adjusted to 400 mL with LB and the growth was resumed for 2 h. Protein expression was initiated by adding 0.1 mM isopropyl β-D-1-thiogalactopyranoside (IPTG) (Thermo Fisher Scientific 15529019) and incubating further for 4 h at 37 °C. Bacteria were pelleted and resuspended in ice cold PBS/1% Triton-X100 supplemented with protease inhibitors. Cells were lysed by small probe sonication (amplitude 30%, 3 × 45 s on ice). Lysate bacteria were pelleted, and the supernatant was incubated with Glutathione agarose beads (Cytiva 17075601) for 1 h. Then, washing steps were made with ice cold PBS/1% Triton-X100 and ice-cold PBS. The beads with the recombinant GST-NAA40 WT or E139Q were stored at − 20 °C in 80% PBS/20% glycerol. To obtain the GST tagged hNAA40, the buffer 50 mM Tris HCL pH 8, 20 mM reduced Glutathione-20% glycerol was used to elute the GST-NAA40. To obtain the untagged version of hNAA40, hNAA40 was enzymatically cut by Factor Xa (NEB P8010S) from the beads and was dialyzed in 50 mM Tris–HCL pH 7.5, 100 mM NaCl, 25% Glycerol. The recombinant proteins were confirmed by SDS-PAGE and the concentrations were determined using the BIO-RAD protein assay dye reagent (BIO-RAD 5000006) and Nanodrop 1000.
An adaptation of the previous described fluorescence assay was used to study the kinetics of hNAA40 with the histone substrates H2A.X, H2A, and H4. […] The fluorescence was monitored with Tecan Spark multimode reader with excitation 410 ± 20 nm and emission 475 ± 20 nm, and the duration of the reaction was 5 min. […]

[2] = molecular target: T1, human NAA40 WT (Homo sapiens, UniProt Q86UY6); experiment: Fluorescence-based in vitro Nt-acetylation assay, N-terminal 17-mer peptides, wild-type NAA40; format: biochemical; settings: for Nt-acetylation by recombinant wild type NAA40: 17-mer peptide 15 μM, 0.1 μM hNAA40, 15 μM Thioglo4, 25 mM HEPES pH 7.5, 150 mM NaCl, 0.01% Triton X100, 5 min, fluorescence ex 410/em 475 nm, ΔRFU/min, triplicate, repeated two times, Fig. 1E
T1 construct: GST (N); made in house; host or cells: E. coli BL21 (DE3) codon plus RIL
Protocol: as §1
An adaptation of the previous described fluorescence assay was used to study the kinetics of hNAA40 with the histone substrates H2A.X, H2A, and H4. Specifically, the full-length histone proteins H2A.X (TEBU BIO 23615-0307), H2A, H4, and H2B, and 17-mer peptides corresponding to the N-terminal end of H4, H2A.X, H2A.J, SMARCD2 were tested with WT or E139Q hNAA40. The peptides used in this study were synthesized by BIOSYNTAN GmbH, with > 95% purity. Final substrate concentration was 15μM for the rate comparison between WT and E139Q hNAA40 (ΔRFU/min), and for the Km determination the concentration ranged from 0.1 μM to 25 μM (1:2 dilutions). The reactions were in triplicate, repeated two times and contained 15 μM Thioglo4 (Merck 595504), 10 μM Acetyl coenzyme A lithium salt (Santa Cruz sc-214465), 25 mM HEPES pH 7.5, 150 mM NaCl, 0.01% Triton X100), 0.1μM hNAA40 in a final volume of 40 μl. The reaction was initiated with the addition of the substrate. The fluorescence was monitored with Tecan Spark multimode reader with excitation 410 ± 20 nm and emission 475 ± 20 nm, and the duration of the reaction was 5 min. We generated the standard curve y = 685.2*X-92.53 using 0–10 μM 1:2 dilutions of Coenzyme A sodium salt hydrate (Merck C13144) and 25 mM HEPES pH 7.5, 150 mM NaCl, 0.01% Triton X100. GraphPad Prism 8 was used for the enzyme kinetics analyses.

Row | Substance | Nt-acetylation by catalytically inactive NAA40 (E139Q) [1] | Nt-acetylation by recombinant wild type NAA40 ([2]; 10 μM acetyl-CoA) | Michaelis constant (Km), stated as affinity (inverse measure) ([2]; 17-mer peptides 0.1 μM to 25 μM (1:2 dilutions), 10 μM acetyl-CoA, 0.1 μM hNAA40, pH 7.5, Fig. 1F) | catalytic efficiency (kcat/Km) ([2]; 17-mer peptides, Fig. 1H)
1 | H2A.J peptide: 17 amino acid long peptide corresponding to the N-terminal end of H2A.J (MSGRGKQGGKVRAKAKS; UniProt Q9BTM1 1-17, looked up, fragment) | not the catalytically inactive human NAA40 | Nt-acetylated by the wild-type | – | –
2 | SMARCD2 peptide: 17 amino acid long peptide corresponding to the N-terminal end of SMARCD2 (MSGRGAGGFPLPPLSPG; UniProt Q92925 1-17, looked up, fragment) | not the catalytically inactive human NAA40 | Nt-acetylated by the wild-type | significantly lower | significantly lower than histones
3 | H2A.X peptide: 17 amino acid long peptide corresponding to the N-terminal end of H2A.X (SGRGKTGGKARAKAKSR; UniProt P16104 2-18, looked up, fragment) | not the catalytically inactive human NAA40 | Nt-acetylated by the wild-type | – | –
